Experimental findings from patent US20250026797A1 (GOVERNMENT OF THE UNITED STATES OF AMERICA AS REPRESENTED …, published 2025) are described below.

Substitutions are numbered along the chain they refer to. In names and notes the source's numbering stands. No end group written: not given here. *: point of attachment. Biotin = O=C1N[C@H]2[C@H](CS[C@H]2CCCCC(=O)*)N1

Assay [1] concerns the target T1, PGVVKSK(biotin) peptide (PGXVKSK(biotin), X = Val).
T1 construct: also called Val at P3
T1 peptide: PGVVKSK(Biotin)
Briefly: BLI, biotinylated peptide on streptavidin biosensor. The method, then: (§1) The measurements were analyzed with instrument software Data Analysis HT (Version 12).
(§2) Previous works on GID4, as well as other N-degron proteins reported significant impact of the second position of the peptide (P2) on binding affinity. The impact of the P2 on the top variants were evaluated with BLI assay using PGLVKSK(biotin) and PXLVKSK(biotin) peptides, where X is Arg, Asp, Val, Phe, Ser, Met, or Pro. […] S283F variant and, especially, A252V variant retain higher level of BLI response compared to wild-type when Val or Ser is at P2. S283F variant retains 40% of signal with Ser at P2 and A252V variant retains >65% with Val and Ser. This retention of binding response with Val and Ser at P2, relative to Gly at P2, is maintained with the triple mutant the double mutants, with over 58% of signal retained for these variants when Ser is at P2. The A252V-S283F mutant and the triple mutant retained >55% of signal when Val is at P2.
(§3) Due to the depth of the binding pocket of GID4, the binding is impacted by the identity of residues in the target peptide beyond P2. […] Similar to evaluating the impact of P2, the impact of P3 was evaluated via BLI with PGLVKSK(biotin) peptide and PGXVKSK(biotin) peptides, where X is Arg, Asp, Val, Phe, Ser, Met, or Pro. […] Asp and Pro are particularly not favorable at P3, as almost no BLI signal was measured. The BLI response of variants with the rest of the peptides, however, increased.

Assay [2] addresses T2, VGLVKSK(biotin) peptide (XGLVKSK(biotin), X = Val).
T2 construct: also called Nt-Val peptide
T2 peptide: VGLVKSK(Biotin)
Briefly: BLI, biotinylated peptide on streptavidin biosensor, 10 µmol/L protein. The method, then:
(§4) High-throughput kinetic measurements were taken using Octet Red96e system with Octet Streptavidin (SA) Biosensors in 96-well format. The highest concentration of protein was prepared by mixing 25% of the total volume with 0.4% BSA in dialysis buffer (1×PBS) and completing subsequent dilutions with 0.1% BSA in dialysis buffer. The SA biosensors were hydrated for 10 min in the dialysis buffer with 0.1% BSA then loaded with NH₂-XXXVKSK(biotin)-COOH (where X are residues specified in the experiment and figures) by moving the sensors into wells with 10 μmol/L of the biotinylated peptide and incubating for 2 min. Unbound peptide was removed by incubating in the dialysis buffer with 0.1% BSA for 2 min in the next wells. The association of GID4 wild-type and variants were then measured by incubating the biosensors in wells with the proteins for 10 min and then dissociation measured by moving the sensors into new wells with dialysis buffer with 0.1% BSA for another 10 min. All wells contained 200 μL of specified solution. The measurements were analyzed with instrument software Data Analysis HT (Version 12).
(§5) The association and dissociation of the GID4 wild-type and the six variants to the PGLVKSK(biotin) peptide were evaluated using BLI. BLI is an optical technique that can measure interaction between protein in solution ad peptide immobilized on the biosensor tip. […] The S283F variant has an apparent faster dissociation rate compared to the other singe mutation variants. The apparent faster dissociation rate due to S283F mutation is also present in A252V-S283F mutant, when compared to the A252V-S253T mutant. […] The increase in the BLI response and shift in dissociation rate can be beneficial as an Nt-Pro recognizing protein; differences in off-rate can be used as method to distinguish different Nt-amino acids.
A general note: BLI is a label-free optical method that tracks binding on a fibre tip over time.

The target of assay [3] is T3, NH2-PGLVKSK(biotin)-COOH peptide (SMILES CC(C)C[C@H](NC(=O)CNC(=O)[C@@H]1CCCN1)C(=O)N[C@H](C(=O)N[C@@H](CCCCN)C(=O)N[C@@H](CO)C(=O)N[C@@H](CCCCNC(=O)CCCC[C@@H]1SC[C@@H]2NC(=O)N[C@@H]21)C(=O)O)C(C)C).
T3 construct: Immobilised on streptavidin biosensors in BLI; in solution in the yeast display sorts; also called Nt-Pro peptide; target peptide
T3 peptide: H-PGLVKSK(Biotin)-OH
The assay is described as above. The method, then: as §4, §5

Assay [4] addresses T4, FGLVKSK(biotin) peptide (XGLVKSK(biotin), X = Phe).
T4 construct: also called Nt-Phe peptide
T4 peptide: FGLVKSK(Biotin)
Described as above. The method, then:
as §4, §5

Assay [5] deals with T5, MGLVKSK(biotin) peptide (XGLVKSK(biotin), X = Met).
T5 construct: also called Nt-Met peptide
T5 peptide: MGLVKSK(Biotin)
Described as above. The method, then:
as §4, §5

In assay [6] the target is T6, PVLVKSK(biotin) peptide (PXLVKSK(biotin), X = Val).
T6 construct: also called Val at P2
T6 peptide: PVLVKSK(Biotin)
As to the kind of experiment: BLI, biotinylated peptide on streptavidin biosensor. As to the method: as §1, §2, §3

Assay [7] has as its target T7, PGRVKSK(biotin) peptide (PGXVKSK(biotin), X = Arg).
T7 construct: also called Arg at P3
T7 peptide: PGRVKSK(Biotin)
The assay is described as above. As to the method: as §1, §2, §3

The target in assay [8] is T8, PGSVKSK(biotin) peptide (PGXVKSK(biotin), X = Ser).
T8 construct: also called Ser at P3
T8 peptide: PGSVKSK(Biotin)
The description is as above. As to the method: as §1, §2, §3

Assay [9] deals with T9, PGFVKSK(biotin) peptide (PGXVKSK(biotin), X = Phe).
T9 construct: also called Phe at P3
T9 peptide: PGFVKSK(Biotin)
Described as above. As to the method:
as §1, §2, §3

In assay [10] the target is T10, PGMVKSK(biotin) peptide (PGXVKSK(biotin), X = Met).
T10 construct: also called Met at P3
T10 peptide: PGMVKSK(Biotin)
Described as above. The method, then:
as §1, §2, §3

The target in assay [11] is T11, PSLVKSK(biotin) peptide (PXLVKSK(biotin), X = Ser).
T11 construct: also called Ser at P2
T11 peptide: PSLVKSK(Biotin)
The assay is described as above. As to the method: as §1, §2, §3

B1: wild-type human GID4 fragment (residues 116-300), purified with N-terminal His-tag (other)
chain: GVATSLLYSGSKFRGHQKSKGNSYDVEVVLQHVDTGNSYLCGYLKIKGLTEEYPTLTTFFEGEIISKKHPFLTRKWDADEDVDRKHWGKFLAFYQYAKSFNSDDFDYEELKNGDYVFMRWKEQFLVPDHTIKDISGASFAGFYYICFQKSAASIEGYYYHRSSEWYQSLNLTHVPEHSAPIYEFR
notes: Expressed in E. coli BL21(DE3), nickel-column purified; also called wild-type GID4; native GID4; not shown: N-terminal six-histidine tag and TEV protease recognition site from the pET21(+) construct
In the case of B1, in assay [1], the “% of steady-state BLI response relative to PGLVKSK(biotin)” value is more than 50%.

B2: GID4 A252V-S283F double mutant variant (residues 116-300), purified with N-terminal His-tag (designed binder)
chain: B1 chain with A137V, S168F
notes: also called A252V-S283F mutant; not shown: N-terminal six-histidine tag and TEV protease recognition site from the pET21(+) construct
B2: the binding result in assay [2], in assay [3], in [4] and in assay [5] was “binds” throughout. Moreover, the figures for the “% of steady-state BLI signal retained relative to PGLVKSK(biotin)” value in assay [6] and in assay [11] were more than 55% and more than 58%, respectively. In addition, the “% of steady-state BLI response relative to PGLVKSK(biotin)” value in [1] was more than 69%; in assay [7] it was more than 69%; in assay [8], more than 51%; in [9], more than 69%; in assay [10], more than 69%.

B3: GID4 A252V variant (residues 116-300), purified with N-terminal His-tag (designed binder)
chain: B1 chain with A137V
notes: not shown: N-terminal six-histidine tag and TEV protease recognition site from the pET21(+) construct
Consider B3, for which the binding result in [2], in assay [4] and in assay [5] was “binds” each time. Moreover, the “fold steady-state BLI response against wild-type GID4” value in assay [3] came to 1.7 fold. For the same molecule, the “% of steady-state BLI signal retained relative to PGLVKSK(biotin)” value in assay [6] and in [11] was more than 65% each time. In addition, the “% of steady-state BLI response relative to PGLVKSK(biotin)” value in assay [1], in assay [7], in assay [9] and in assay [10] was more than 60% throughout. For the same molecule, in assay [8], the “% of binding response relative to PGLVKSK(biotin)” value was less than 31%.

B4: GID4 S283F variant (residues 116-300), purified with N-terminal His-tag (designed binder)
chain: B1 chain with S168F
notes: as for B3
For the molecule B4, the binding result in assay [2], in assay [3], in assay [4], in assay [5], in assay [6] and in [1] was “binds” throughout. In addition, the binding result in assay [7], in [9] and in assay [10] was “binds” throughout. The “% of binding response relative to PGLVKSK(biotin)” value in assay [8] is less than 31%. The “% of steady-state BLI signal retained relative to PGLVKSK(biotin)” value in [11] came out at 40%.

B5: GID4 S253T variant (residues 116-300), purified with N-terminal His-tag (designed binder)
chain: B1 chain with S138T
notes: as for B3
For the molecule B5, the binding result in assay [2], in [3], in assay [4], in [5], in assay [1] and in assay [7] was “binds” each time. The binding result in [9] and in assay [10] was “binds” in each case. In addition, the “% of binding response relative to PGLVKSK(biotin)” value in [8] is less than 31%.

B6: GID4 A252V-S253T-S283F triple mutant variant (residues 116-300), purified with N-terminal His-tag (designed binder)
chain: B1 chain with A137V, S138T, S168F
notes: as for B3
For the molecule B6, the binding result in assay [2], in assay [4] and in [5] was “binds” throughout. Besides, the “fold steady-state BLI response against wild-type GID4” value in assay [3] is more than 2.3 fold. In addition, the “% of steady-state BLI signal retained relative to PGLVKSK(biotin)” value in assay [6] is more than 55%; in assay [11] it was more than 58%. For the same molecule, the “% of steady-state BLI response relative to PGLVKSK(biotin)” value was more than 69% in assay [1]; more than 69% in assay [7]; more than 51% in assay [8]; more than 69% in assay [9]; more than 69% in assay [10].

B7: GID4 A252V-S253T double mutant variant (residues 116-300), purified with N-terminal His-tag (designed binder)
chain: B1 chain with A137V, S138T
notes: also called A252V-S253T mutant; not shown: N-terminal six-histidine tag and TEV protease recognition site from the pET21(+) construct
Turning to B7, the binding result in assay [2], in assay [3], in assay [4], in [5] and in [6] was “binds” each time. Besides, the “% of steady-state BLI response relative to PGLVKSK(biotin)” value was more than 69% in [1]; more than 69% in assay [7]; more than 51% in assay [8]; more than 69% in assay [9]; more than 69% in [10]. In addition, in [11], the “% of steady-state BLI signal retained relative to PGLVKSK(biotin)” value is more than 58%.
